These results are taken from US20050276799A1 (PDL BIOPHARMA, published 2005).

Assay [1] concerns the target T1, recombinant, GPI-linked human FcRn on cell line NS0 HuFcRn (memb), clone 7-3 (human, UniProt P55899 24-297; P61769 21-119).
T1 construct: Expressed from pDL208 on the surface of NS0 cells; also called human neonatal Fc receptor; not shown: human c-myc decapeptide flanked by linker peptides, then GPI linkage signal of human decay accelerating factor (vector p)
The experiment in a line: competition FACS vs biotinylated OST577-IgG2M3 on NS0 cells expressing human FcRn, FBB pH 6.0.

In assay [2] the target is T1, recombinant, GPI-linked human FcRn on …. Nature of the assay: IC50 of wild-type / IC50 of this antibody, same assay.
For assay [3] the target is unchanged. Nature of the assay: competition FACS vs biotinylated HuEP5C7-IgG2M3 on NS0 cells expressing human FcRn, FBB pH 6.0.
The target is the same in assay [4]. Nature of the assay: IC50 of wild-type / IC50 of this antibody, same assay. The source holds these as a separate data set.
Assay [5] shares this target. The description is as above. The source holds these as a separate data set.
Assay [6] has the same target. The experiment in a line: competition FACS vs biotinylated HuEP5C7-IgG2M3 on NS0 cells expressing human FcRn, FSB pH 6.0.
Assay [7] concerns the target T2, recombinant, GPI-linked rhesus FcRn on cell line NS0 RhFcRn, clone R-3 (rhesus, UniProt H9Z6D2 24-297; Q6V7J5 21-119, GPI-linked).
T2 construct: Expressed from pDL410 on the surface of NS0 cells; not shown: human c-myc decapeptide flanked by linker peptides, then GPI linkage signal of human decay accelerating factor (vector p)
The experiment in a line: IC50 of wild-type / IC50 of this antibody, same assay.

In assay [8] the target is T1, recombinant, GPI-linked human FcRn on …. Nature of the assay: competition FACS vs biotinylated human IgG on NS0 cells expressing human FcRn, FBB pH 6.0.
Assay [9] shares this target. Nature of the assay: IC50 of wild-type / IC50 of this antibody, same assay. The source holds these as a separate data set.
For assay [10] the target is unchanged. The experiment in a line: competition FACS vs biotinylated human IgG on NS0 cells expressing human FcRn, FBB pH 6.0. The source holds these as a separate data set.
Assay [11] shares this target. The experiment in a line: IC50 of wild-type / IC50 of this antibody, same assay. This is another data set of the same source.
Assay [12] deals with T2, recombinant, GPI-linked rhesus FcRn on …. The description is as above. This is another data set of the same source.
The target in assay [13] is T1, recombinant, GPI-linked human FcRn on …. The description is as above. The source holds these as a separate data set.

Read-outs that look alike come from different tables or passages of the source.

B1: OST577-IgG2M3 wild-type (antibody)
heavy: QVQLVESGGGVVQPGRSLRLSCAASGFTFSRYGMHWVRQAPGKGLEWVAVISYDGSNKWYADSVKGRFTISRDNSKNTLFLQMHSLRAADTGVYFCAKDQLYFGSQSPGHYWGQGTLVTVSSASTKGPSVFPLAPCSRSTSESTAALGCLVKDYFPEPVTVSWNSGALTSGVHTFPAVLQSSGLYSLSSVVTVPSSNFGTQTYTCNVDHKPSNTKVDKTVERKCCVECPPCPAPPAAAPSVFLFPPKPKDTLMISRTPEVTCVVVDVSHEDPEVQFNWYVDGVEVHNAKTKPREEQFNSTFRVVSVLTVVHQDWLNGKEYKCKVSNKGLPAPIEKTISKTKGQPREPQVYTLPPSREEMTKNQVSLTCLVKGFYPSDIAVEWESNGQPENNYKTTPPMLDSDGSFFLYSKLTVDKSRWQQGNVFSCSVMHEALHNHYTQKSLSLSPSK
light: SYVLTQPPSVSVAPGQTARITCGGDNIGSKSVNWFQQKPGQAPVLVVYDDNERPSGISERFSGSNSGNTATLTISRVEAGDEADYYCQVWDSSSDHVVFGGGTKLTVLGQPKAAPSVTLFPPSSEELQANKATLVCLISDFYPGAVTVAWKADSSPVKAGVETTTPSKQSNNKYAASSYLSLTPEQWKSHRSYSCQVTHEGSTVEKTVAPTECS
notes: Human anti-HBV antibody, IgG2M3 (V234A, G237A) heavy, lambda-2 light
A word on the IC50: it is the concentration needed to halve the response being measured. For the molecule B1, the values for the IC50 in assay [1], in [3] and in [6] were 11.9 µg/mL, 9.4 µg/mL and 10.7 µg/mL, respectively. In addition, the “Relative Binding” value in assay [2], in [4], in assay [5] and in assay [7] was 1 ratio throughout.

B2: OST577-IgG2M3 M428F (antibody)
heavy: QVQLVESGGGVVQPGRSLRLSCAASGFTFSRYGMHWVRQAPGKGLEWVAVISYDGSNKWYADSVKGRFTISRDNSKNTLFLQMHSLRAADTGVYFCAKDQLYFGSQSPGHYWGQGTLVTVSSASTKGPSVFPLAPCSRSTSESTAALGCLVKDYFPEPVTVSWNSGALTSGVHTFPAVLQSSGLYSLSSVVTVPSSNFGTQTYTCNVDHKPSNTKVDKTVERKCCVECPPCPAPPAAAPSVFLFPPKPKDTLMISRTPEVTCVVVDVSHEDPEVQFNWYVDGVEVHNAKTKPREEQFNSTFRVVSVLTVVHQDWLNGKEYKCKVSNKGLPAPIEKTISKTKGQPREPQVYTLPPSREEMTKNQVSLTCLVKGFYPSDIAVEWESNGQPENNYKTTPPMLDSDGSFFLYSKLTVDKSRWQQGNVFSCSVFHEALHNHYTQKSLSLSPSK
light: SYVLTQPPSVSVAPGQTARITCGGDNIGSKSVNWFQQKPGQAPVLVVYDDNERPSGISERFSGSNSGNTATLTISRVEAGDEADYYCQVWDSSSDHVVFGGGTKLTVLGQPKAAPSVTLFPPSSEELQANKATLVCLISDFYPGAVTVAWKADSSPVKAGVETTTPSKQSNNKYAASSYLSLTPEQWKSHRSYSCQVTHEGSTVEKTVAPTECS
B2: the results for the IC50 in [3] and in assay [6] were 2.97 µg/mL and 3.4 µg/mL, respectively. Moreover, the “Relative Binding” value in [4] was determined as 3.2 ratio; in [5] it was 3.1 ratio.

B3: OST577-IgG2M3 T250E/M428F (antibody)
heavy: QVQLVESGGGVVQPGRSLRLSCAASGFTFSRYGMHWVRQAPGKGLEWVAVISYDGSNKWYADSVKGRFTISRDNSKNTLFLQMHSLRAADTGVYFCAKDQLYFGSQSPGHYWGQGTLVTVSSASTKGPSVFPLAPCSRSTSESTAALGCLVKDYFPEPVTVSWNSGALTSGVHTFPAVLQSSGLYSLSSVVTVPSSNFGTQTYTCNVDHKPSNTKVDKTVERKCCVECPPCPAPPAAAPSVFLFPPKPKDELMISRTPEVTCVVVDVSHEDPEVQFNWYVDGVEVHNAKTKPREEQFNSTFRVVSVLTVVHQDWLNGKEYKCKVSNKGLPAPIEKTISKTKGQPREPQVYTLPPSREEMTKNQVSLTCLVKGFYPSDIAVEWESNGQPENNYKTTPPMLDSDGSFFLYSKLTVDKSRWQQGNVFSCSVFHEALHNHYTQKSLSLSPSK
light: SYVLTQPPSVSVAPGQTARITCGGDNIGSKSVNWFQQKPGQAPVLVVYDDNERPSGISERFSGSNSGNTATLTISRVEAGDEADYYCQVWDSSSDHVVFGGGTKLTVLGQPKAAPSVTLFPPSSEELQANKATLVCLISDFYPGAVTVAWKADSSPVKAGVETTTPSKQSNNKYAASSYLSLTPEQWKSHRSYSCQVTHEGSTVEKTVAPTECS
Take B3: in [3], the IC50 came out at 0.639 µg/mL. Also, the “Relative Binding” value in assay [4] came out at 15 ratio.

B4: Dac-IgG1 wild-type (daclizumab) (antibody)
heavy: not shown
light: DIQMTQSPSTLSASVGDRVTITCSASSSISYMHWYQQKPGKAPKLLIYTTSNLASGVPARFSGSGSGTEFTLTISSLQPDDFATYYCHQRSTYPLTFGQGTKVEVKRTVAAPSVFIFPPSDEQLKSGTASVVCLLNNFYPREAKVQWKVDNALQSGNSQESVTEQDSKDSTYSLSSTLTLSKADYEKHKVYACEVTHQGLSSPVTKSFNRGEC
notes: Humanized anti-CD25; also called Dac-IgG1 WT
Regarding B4, the IC50 in assay [8] was 20.4 µg/mL. Further, the “Relative Binding” value in [9] was found to be 1 ratio.

B5: Dac-IgG2M3 wild-type (antibody)
heavy: QVQLVQSGAEVKKPGSSVKVSCKASGYTFTSYRMHWVRQAPGQGLEWIGYINPSTGYTEYNQKFKDKATITADESTNTAYMELSSLRSEDTAVYYCARGGGVFDYWGQGTLVTVSSASTKGPSVFPLAPCSRSTSESTAALGCLVKDYFPEPVTVSWNSGALTSGVHTFPAVLQSSGLYSLSSVVTVPSSNFGTQTYTCNVDHKPSNTKVDKTVERKCCVECPPCPAPPAAAPSVFLFPPKPKDTLMISRTPEVTCVVVDVSHEDPEVQFNWYVDGVEVHNAKTKPREEQFNSTFRVVSVLTVVHQDWLNGKEYKCKVSNKGLPAPIEKTISKTKGQPREPQVYTLPPSREEMTKNQVSLTCLVKGFYPSDIAVEWESNGQPENNYKTTPPMLDSDGSFFLYSKLTVDKSRWQQGNVFSCSVMHEALHNHYTQKSLSLSPGK
light: DIQMTQSPSTLSASVGDRVTITCSASSSISYMHWYQQKPGKAPKLLIYTTSNLASGVPARFSGSGSGTEFTLTISSLQPDDFATYYCHQRSTYPLTFGQGTKVEVKRTVAAPSVFIFPPSDEQLKSGTASVVCLLNNFYPREAKVQWKVDNALQSGNSQESVTEQDSKDSTYSLSSTLTLSKADYEKHKVYACEVTHQGLSSPVTKSFNRGEC
notes: also called Dac-IgG2M3 WT
As to B5, the IC50 in [10] amounted to 71.4 µg/mL. The “Relative Binding” value in assay [11] was determined as 1 ratio.

B6: Dac-IgG1 T250Q/M428L (antibody)
heavy: not shown
light: DIQMTQSPSTLSASVGDRVTITCSASSSISYMHWYQQKPGKAPKLLIYTTSNLASGVPARFSGSGSGTEFTLTISSLQPDDFATYYCHQRSTYPLTFGQGTKVEVKRTVAAPSVFIFPPSDEQLKSGTASVVCLLNNFYPREAKVQWKVDNALQSGNSQESVTEQDSKDSTYSLSSTLTLSKADYEKHKVYACEVTHQGLSSPVTKSFNRGEC
notes: also called T250Q/M428L daclizumab
With B6, the IC50 in assay [8] was 0.626 µg/mL. The “Relative Binding” value in assay [9] amounted to 33 ratio.

B7: Hu1D10-IgG4 wild-type (antibody)
heavy: not shown
light: DIQMTQSPSSLSASVGDRVTITCRASENIYSYLAWYQQKPGKAPKLLVSNAKTLAEGVPSRFSGSGSGKQFTLTISSLQPEDFATYYCQHHYGNSYPFGQGTKLEIKRTVAAPSVFIFPPSDEQLKSGTASVVCLLNNFYPREAKVQWKVDNALQSGNSQESVTEQDSKDSTYSLSSTLTLSKADYEKHKVYACEVTHQGLSSPVTKSFNRGEC
In the case of B7, the “Relative Binding” value in assay [12] and in [13] was 1 ratio in each case.
